Test results as given in paper PMC7952403 (Nature Communications, 2021).
Where a chain is given by its changes, count along the chain named.

B1: STE72-8E1 scFv-Fc (scFv, V domains shown)
VH: QVQLQEWGPGLVQPSETLSLTCTVSGGSISSGGYYWSWIRQHPGKGLEWIGRIYPSGSTNYNPSLKSRVTMSVDTSENQFSLKLSSVTAADTAVYYCARGGPKRSGSPFDVWGQGTMVTVSS
VL: EVVMTQSPSTLSASVGDRVTITCRASQTFGPWLAWYQQKPGQAPKLLIYMASELESGVPSRFSGSGSGTEFTLSISSLQPDDFATYYCQQYNTFSPWTFGQGTKVDIK
notes: also called scFv-hFc; source: Expi293F, transient transfection, purified (Protein A)
B2: STE72-2G4 scFv-Fc (scFv, V domains shown)
VH: QVQLVQSGAEVKKPGASVKVSCKASGYTFTSYGISWVRQAPGQGLEWMGWISAYNGNTNYAQKLQGRVTMTTDTSTSTAYMELRSLRSDDTAVYYCARFFYDSSGYSTDYWGQGTLVTVSS
VL: ETTLTQSPAFMSVTPGDRAILSCRASQSVDSHLAWYHQKPGQPPRLLIYGASTRATGIPARFSGSRSGTEFTLTISGLQSEDLGVYYCQQYASWPPGYNFGQGTKLEIK
notes: as for B1
B3: STE73-2B2 scFv-Fc (scFv, V domains shown)
VH: QVQLVQSGAEVKKPGASVKVSCKASGYTFTGYYMHWVRQAPGQGLEWMGWINPNSGGTNYAQKFQGRVTITRDTSASTAYMELSSLRSEDTAVYYCARVSGWYFGAFDIWGQGTMVTVSS
VL: LPVLTQPHSLSESPGKTVNISCTGSSGSIASNYVQWYQQRPGSAPTTVIYEDSHRPSGVPDRFSGSIDSSSNSASLSISGLKTEDEADYYCQSYDSSNNQWVFGGGTKLTVL
notes: as for B1
B4: STE73-2C2 scFv-Fc (scFv, V domains shown)
VH: QVQLVESGGGLVQPGGSLRLSCAASGITVSSNYMSWVRQAPGKGLEWVSVIYSGGSTFYADSVKGRFTISRDNSKNTLYLQMNSLRAEDTGVYYCARGHDNLDYWGQGTLVTVSS
VL: LPVLTQPHSVSESPGKTVIISCTGSSDSIASNYVQWYQQRPGSAPTTVIYEDNKRPSGVPDRFSGSTDSSSNSASLTISGLKTEDEAEYYCQSYDSNNHWVFGGGTKLTVL
notes: as for B1
B5: STE73-2E9 scFv-Fc (scFv, V domains shown)
VH: QVQLVQSGAEVKKPGASVKVSCKASGYTFTSYGISWVRQAPGQGLEWMGWISAYNGNTNYAQKLQGRVTMTTDTSTSTAYMELRSLRSDDTAVYYCARGKFDYWGQGTLVTVSS
VL: QSVLTQPPSVSEAPSQRVTISCSGSSSNIGNNAVNWYQQLPGKAPKLLIYYDDVLPSGVSDRFSGSKSGTSASLAISGLQSGDEADYYCAAWDDSLSGVVFGGGTKLTVL
notes: as for B1
B6: STE73-2G8 scFv-Fc (scFv, V domains shown)
VH: QVQLVQSGGGLVKPGGSLRLSCAASGITVSSNYMSWVRQAPGKGLEWVSILYSGGTTFYTDSVKGRFTISRDNSKNTLHLQMNSLRAEDTAVYYCARWSGTYYDYWGQGTLVTVSS
VL: SSELTQDPAVSVALGQTVRITCQGDSLRSYYASWYQQKPGQAPVLVIYGKNNRPSGIPDRFSGSSSGNTASLTITGAQAEDEADYYCNSRDSTNDPVLFGAGTKLTVL
notes: as for B1
B7: STE73-6C1 scFv-Fc (scFv, V domains shown)
VH: QVQLVQSGGGVVQPGRSLRLSCAASGFTFSSYAMHWVRQAPGKGLEWVAVISYDGSNKYYADSVKGRFTISRDNSKNTLYLQMNSLRAEDTAVYYCARSYVGGMDVWGQGTTVTVSS
VL: QLVLTQSPSVSGAPGQSVTISCTGTDSNIGAGYNVHWYQQLPGAAPKLIISYTDNRPSGVPDRFSGSKSGTSASLAITGLQAEDEADYYCQSSDRTLVGSLFGTGTKVTVL
notes: as for B1
B8: STE73-6C8 scFv-Fc (scFv, V domains shown)
VH: QVQLQQSGAEVKKPGSSVKVSCKASGGTFSSYAISWVRQAPGQGLEWMGRIIPILGIANYAQKFQGRVTITADKSTSTAYMELSSLRSEDTAVYYCARSIAALNWFDPWGQGTLVTVSS
VL: NFMLTQPHSVSESPGKTVTIPCTGSRGSIANNYVQWYRQRPGRAPTTVIFEDNQRPSGVPDRFSGSIDRSSNSASLTISGLETEDEADYYCQSYDGSNVIFGGGTKLTVL
notes: as for B1
B9: STE73-9G3 scFv-Fc (scFv, V domains shown)
VH: QVQLQESGGGLVQPGGSLRLSCAASGFTFSSYAMSWVRQAPGKGLEWVSAISGSGGSTYYADSVKGRFTISRDNSKNTLYLQMNSLRAEDTAVYYCARDLVLGSGSSNDWGRGTLVTVSS
VL: B7 VL with L2P, S7P
notes: as for B1
B10: STE70-1E12 scFv-Fc (scFv, V domains shown)
VH: QMQLVQSGAEVKKPGASVKVSCKASGYTFTGYYMHWVRQAPGQGLEWMGRINPNSGGTNYAQKFQGRVTMTRDTSTSTAYMELSRLRSDDTAVYYCVRDGYNFNNWFDPWGQGTLVTVSS
VL: NFMLTQPHSVSGSPGETITISCTGSGGSIASNYVQWYRQRPGSAPTIVIYEDTQRPSGVPDRFSGSIDSSSNSASLTISGLKTEDEADYYCQSSESTNHVMFGGGSKLTVL
notes: as for B1
B11: STE72-1B6 scFv-Fc (scFv, V domains shown)
VH: QVKLVQSGGGLVQPGGSLRLSCAASGFTFSSYAMSWVRQAPGKGLEWVSGISGSGGSTYYADSVKGRFTISRDNSKNTLYLQVNSLRAEDTAVYYCAKAPYGDFRGLWYFDYWGQGTLVTVSS
VL: DIVMTQSPFSVSASVGDRVTISCRASQDIRSWLAWYQQKPGKAPQLLIYDASSLQSGVPSRFSGSGSGTDFTLTISSLQPEDFATYYCQQADSVPLTFGGGTKVEIQ
notes: as for B1
B12: STE72-4C10 scFv-Fc (scFv, V domains shown)
VH: EVQLQESGGGVVQPGRSLRLSCAASGFTFSSYAMHWVRQAPGKGLEWVAVISYDGSNKYYADSVKGRFTISRDNSKNTLYLQMNSLRAEDTAVYYCAREYSSSWYGLGAFDIWGQGTMVTVSS
VL: DIRLTQSPSSLSASVGDRVTITCRASQNIHYYLNWYQQKPGKAPSLLVYGASSLQSGVPSRFSGSGSGTEYTLTISSLQPEDFATYFCQQSFKSPATFGQGTKVDIK
notes: as for B1
B13: STE72-4E12 scFv-Fc (scFv, V domains shown)
VH: QVQLVQSGAEVKKPGASVKVSCKASGYTFTSYYMHWVRQAPGQGLEWMGIINPSGGSTSYAQKFQGRVTMTRDTSTSTVYMELSSLRSEDTAVYYCARDLSGGLDYWGQGTLVTVSS
VL: ETTLTQSPATLSVSPGERVTLACRAGQTISSKLAWYRQKPGQAPSLLIYDASTRATGVPARFSGSGSGTEFTLTISSLQSEDFAVYYCQQYSDWPPTFGQGTKVEIK
notes: as for B1
B14: STE73-2G8 IgG (antibody, V domains shown)
VH: B6 VH
VL: B6 VL
notes: source: Expi293F, transfected, purified (Protein A); copies: 2 + 2
B15: STE73-6C1 IgG (antibody, V domains shown)
VH: B7 VH
VL: B7 VL
notes: as for B14
B16: STE73-6C8 IgG (antibody, V domains shown)
VH: B8 VH
VL: B8 VL
notes: as for B14
B17: STE73-9G3 IgG (antibody, V domains shown)
VH: B9 VH
VL: B7 VL with L2P, S7P
notes: as for B14
B18: STE70-1E12 IgG (antibody, V domains shown)
VH: B10 VH
VL: B10 VL
notes: as for B14
B19: STE72-1B6 IgG (antibody, V domains shown)
VH: B11 VH
VL: B11 VL
notes: as for B14
B20: STE72-1G5 scFv-Fc (scFv, V domains shown)
VH: QVQLVQSGAEVKKPGASVKVSCKASGGTFSSYAISWVRQAPGQGLEWMGGIIPIFGTANYAQKFQGRVTITADESTSTAYMELSSLRSEDTAVYYCAVGGVQLWLTYWGQGTLVTVSS
VL: ETTLTQSPGALSLSPGERATLSCRVSQSLSSNSLAWYQQKPGQAPRLLIYDTSIRATGIPDRFSGSGSGTDFTLTISRLEPEDFAVYYCHKYGSWPRTFGQGTKVEV
notes: as for B1
B21: STE72-4E12 IgG (antibody, V domains shown)
VH: B13 VH
VL: B13 VL
notes: as for B14

molecular target: T1, SARS-CoV-2 RBD-SD1 with murine IgG2a Fc part, produced in High Five cells (SARS-CoV-2, UniProt P0DTC2); assay: flow cytometry on cells; settings: both partners purified
T1 construct: source: High Five insect cells, transient transfection, purified (Protein A)

Binder | IC50
B1 | 5.6 nM
B2 | 3.7 nM
B3 | 1.7 nM
B4 | 3 nM
B5 | 3.4 nM
B6 | 2.8 nM
B7 | 4.1 nM
B8 | 5.4 nM
B9 | 3.4 nM
B10 | 3.2 nM
B11 | 4.8 nM
B12 | 3.5 nM
B13 | 3 nM

molecular target: T1, SARS-CoV-2 RBD-SD1 with murine IgG2a Fc …; assay: ELISA; settings: both partners purified

Binder | EC50
B1 | 0.4 nM
B2 | 0.2 nM
B3 | 0.2 nM
B4 | 3.1 nM
B6 | 0.2 nM
B14 | 0.8 nM
B7 | 0.6 nM
B15 | 14.1 nM
B8 | 1.1 nM
B16 | 2.9 nM
B9 | 0.4 nM
B17 | 0.4 nM
B10 | 0.3 nM
B18 | 0.3 nM
B11 | 0.5 nM
B19 | 1.1 nM
B20 | 2.8 nM
B12 | 0.5 nM
B13 | 1.5 nM
B21 | 1.6 nM
